What is called Kd is the free concentration of one partner at which half of the binding sites on the other are occupied at equilibrium, for simple one-to-one binding.

Data on 22 molecules can be found in patent publication US20260167718A1 (Merck Sharp & Dohme, published 2026).

Sequences and labels used below:
T1: rhesus ILT3-His tagged recombinant protein (rhesus monkey (Macaca mulatta))
T1 construct: also called ILT3_MM; not shown: His tag
T1 chain: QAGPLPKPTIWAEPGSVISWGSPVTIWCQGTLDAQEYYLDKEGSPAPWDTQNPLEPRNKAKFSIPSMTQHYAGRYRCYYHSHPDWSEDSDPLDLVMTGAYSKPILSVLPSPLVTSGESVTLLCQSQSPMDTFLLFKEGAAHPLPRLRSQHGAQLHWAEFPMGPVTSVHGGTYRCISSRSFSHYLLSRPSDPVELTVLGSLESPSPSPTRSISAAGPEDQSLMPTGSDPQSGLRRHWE

B1: Humanized anti-ILT3 mAb (52B8 VH1/VL1) IgG4 S228P/Kappa (antibody, V domains shown)
VH: EVQLVESGGGLVQPGGSLRLSCAASGFTFSNYGMSWVRQAPGKGLEWVATISGGGDYTNYPDSMRGRFTISRDNAKNSLYLQMNSLRAEDTAVYYCGRRLWFRSLYYAMDYWGQGTLVTVSS
VL: DIVLTQSPDSLAVSLGERATINCRASEKVDSFGNSFMHWYQQKPGQPPKLLIYLTSNLDSGVPDRFSGSGSRTDFTLTISSLQAEDVAVYYCQQNNEDPYTFGQGTKLEIKR
notes: also called mAb 1
B2: Humanized anti-ILT3 mAb (52B8 VH1/VL3) IgG4 S228P/Kappa (antibody, V domains shown)
VH: B1 VH
VL: EIVLTQSPATLSLSPGERATLSCRASEKVDSFGNSFMHWYQQKPGQAPRLLIYLTSNLDSGVPARFSGSGSRTDFTLTISSLEPEDFAVYYCQQNNEDPYTFGQGTKLEIKR
notes: also called mAb 3
B3: Humanized anti-ILT3 mAb (52B8 VH1 M64V W101Q/VL5 S35N) IgG4 S228P/Kappa (antibody, V domains shown)
VH: B1 VH with M64V, W101Q
VL: DIQLTQSPSSLSASVGDRVTITCRASEKVDSFGNNFMHWYQQKPGKAPKLLIYLTSNLDSGVPSRFSGSGSGTDFTLTISSLQPEDFATYYCQQNNEDPYTFGQGTKLEIKR
notes: also called mAb 60
B4: Humanized anti-ILT3 mAb (52B8 VH1 M64V W101Q/VL5 N34D) IgG4 S228P/Kappa (antibody, V domains shown)
VH: B1 VH with M64V, W101Q
VL: B3 VL with N34D, N35S
notes: also called mAb 62
B5: Humanized anti-ILT3 mAb (52B8 VH2/VL1) IgG4 S228P/Kappa (antibody, V domains shown)
VH: B1 VH with R87K
VL: B1 VL
B6: Humanized anti-ILT3 mAb (52B8 VH1 M64V W101Q/VL5 N34Q) IgG4 S228P/Kappa (antibody, V domains shown)
VH: B1 VH with M64V, W101Q
VL: B3 VL with N34Q, N35S
notes: also called mAb 61
B7: Humanized anti-ILT3 mAb (52B8 VH1 M64V W101Q/VL5 S35A) IgG4 S228P/Kappa (antibody, V domains shown)
VH: B1 VH with M64V, W101Q
VL: B3 VL with N35A
notes: also called mAb 59
B8: Humanized anti-ILT3 mAb (52B8 VH1 M64L/VL1) IgG4 S228P/Kappa (antibody, V domains shown)
VH: B1 VH with M64L
VL: B1 VL
notes: also called mAb 17
B9: Humanized anti-ILT3 mAb (52B8 VH1 M64V/VL5 N34D) IgG4 S228P/Kappa (antibody, V domains shown)
VH: B1 VH with M64V
VL: B3 VL with N34D, N35S
notes: also called mAb 47
B10: Humanized anti-ILT3 mAb (52B8 VH1 M64V W101Y/VL5 N34Q) IgG4 S228P/Kappa (antibody, V domains shown)
VH: B1 VH with M64V, W101Y
VL: B3 VL with N34Q, N35S
notes: also called mAb 57
B11: Humanized anti-ILT3 mAb (52B8 VH1 M64L/VL3) IgG4 S228P/Kappa (antibody, V domains shown)
VH: B1 VH with M64L
VL: B2 VL
notes: also called mAb 19
B12: Humanized anti-ILT3 mAb (52B8 VH1 M64V W101Y/VL5 S35A) IgG4 S228P/Kappa (antibody, V domains shown)
VH: B1 VH with M64V, W101Y
VL: B3 VL with N35A
notes: also called mAb 55
B13: Humanized anti-ILT3 mAb (52B8 VH1 M64V W101Y/VL5 S35N) IgG4 S228P/Kappa (antibody, V domains shown)
VH: B1 VH with M64V, W101Y
VL: B3 VL
notes: also called mAb 56
B14: Humanized anti-ILT3 mAb (52B8 VH1 M64V W101F/VL5 N34D) IgG4 S228P/Kappa (antibody, V domains shown)
VH: B1 VH with M64V, W101F
VL: B3 VL with N34D, N35S
notes: also called mAb 54
B15: Humanized anti-ILT3 mAb (52B8 VH1 M64V/VL1) IgG4 S228P/Kappa (antibody, V domains shown)
VH: B1 VH with M64V
VL: B1 VL
notes: also called mAb 9
B16: Humanized anti-ILT3 mAb (52B8 VH1 M64V W101F/VL5 S35A) IgG4 S228P/Kappa (antibody, V domains shown)
VH: B1 VH with M64V, W101F
VL: B3 VL with N35A
notes: also called mAb 51
B17: Humanized anti-ILT3 mAb (52B8 VH1 M64V W101Y/VL5 N34D) IgG4 S228P/Kappa (antibody, V domains shown)
VH: B1 VH with M64V, W101Y
VL: B3 VL with N34D, N35S
notes: also called mAb 58
B18: Humanized anti-ILT3 mAb (52B8 VH1 M64V/VL5 S35A) IgG4 S228P/Kappa (antibody, V domains shown)
VH: B1 VH with M64V
VL: B3 VL with N35A
notes: also called mAb 44
B19: Humanized anti-ILT3 mAb (52B8 VH1 M64V W101F/VL5 N34Q) IgG4 S228P/Kappa (antibody, V domains shown)
VH: B1 VH with M64V, W101F
VL: B3 VL with N34Q, N35S
notes: also called mAb 53
B20: Humanized anti-ILT3 mAb (52B8 VH1 M64V W101F/VL5 S35N) IgG4 S228P/Kappa (antibody, V domains shown)
VH: B1 VH with M64V, W101F
VL: B3 VL
B21: Humanized anti-ILT3 mAb (52B8 VH1 M64V/VL5 S35N) IgG4 S228P/Kappa (antibody, V domains shown)
VH: B1 VH with M64V
VL: B3 VL
notes: also called mAb 45
B22: Humanized anti-ILT3 mAb (52B8 VH2 M64V/VL1) IgG4 S228P/Kappa (antibody, V domains shown)
VH: B1 VH with M64V, R87K
VL: B1 VL
notes: also called mAb 13

Where a chain is given by its changes, count along the chain named. Names may count otherwise.

One experiment addresses T2, Human ILT3 (LILRB4) extracellular domain with C-terminal His Tag (human, UniProt Q8NHJ6 22-259).
T2 construct: the claims count residues 1-238 as the extracellular domain; also called human ILT3-His; ILT3_H
As to the kind of experiment: SPR (Biacore), human ILT3-His. The procedure: (§1) The binding kinetics and affinities of anti-human ILT3 clones for human or rhesus ILT3-His tagged recombinant protein were measured by surface plasmon resonance using a Biacore™ T200 system (GE Healthcare, Piscataway, NJ). HBS-EP+ buffer (BR-1006-69) was used as the running buffer. Anti-human Fc antibody (Human Fc Capture Kit, BR100839, GE Healthcare) was immobilized via amine coupling chemistry in all four flow cells on a Series S CM5 sensor chip (BR100530 or 29149603, GE Healthcare) following manufacturer instructions. Flow cell 1 was used as reference for background subtraction and was not used for capture. […] Following each injection cycle, all four flow cells were regenerated using 30 second injection of 3M MgCl₂ solution at a flow rate of 10 μL/minute. Reference subtracted sensorgrams were fit to a 1:1 Langmuir Binding Model in the Biacore™ T200 Evaluation Software (Version 2.0) to determine the association (ka) and dissociation (kd) rate constants and the equilibrium dissociation constant KD (=kd/ka).
On the technique in general: Surface plasmon resonance follows binding to a sensor surface in real time, without labels.
Molecule B1 came in with a Kd of 0.99 nM.
On the same count and under the same terms, as for B2, the figure is 1.1 nM.
With B3, the binding result is “no binding (tested: ILT3-His injected up to 20 nM)”.
The same measure, in the same setting: as for B4, the entry is “no binding (tested: ILT3-His injected up to 20 nM)”.
Consider B5, for which binding was put at a Kd of 0.94 nM.
For B6, the binding result was “no binding (tested: ILT3-His injected up to 20 nM)”.
On the same count and under the same terms, to B7 belongs “no binding (tested: ILT3-His injected up to 20 nM)”.
Consider B8, for which the Kd was determined as 0.87 nM.
The same measure, in the same setting: as for B9, the figure is 3.8 nM.
Take B10: the binding result was “no binding (tested: ILT3-His injected up to 20 nM)”.
In turn, B11 displayed an equilibrium dissociation constant (Kd) of 0.99 nM.
Consider B12, for which the binding result is recorded as “no binding (tested: ILT3-His injected up to 20 nM)”.
Same read-out and setting: as for B13, the entry is “no binding (tested: ILT3-His injected up to 20 nM)”; as for B14, “no binding (tested: ILT3-His injected up to 20 nM)”.
Take B15: the Kd was found to be 0.94 nM.
Consider B16, for which the binding result is reported as “no binding (tested: ILT3-His injected up to 20 nM)”.
Still for that read-out and setting: as for B17, the entry is “no binding (tested: ILT3-His injected up to 20 nM)”.
The molecule B18 yielded a Kd of 2.6 nM.
The molecule B19 had a Kd of 35 nM.
Turning to B20, the binding result is on record as “no binding (tested: ILT3-His injected up to 20 nM)”.
B21 showed a Kd of 4.7 nM.
B22 registered a Kd of 0.94 nM.

The next experiment concerns the target T1, rhesus ILT3-His tagged recombinant …. As to the kind of experiment: SPR (Biacore), rhesus ILT3-His. The procedure:
as §1
On to B1, for which the Kd is 25 nM.
Still for that read-out and setting: as for B2, the figure is 26 nM.
In the case of B3, the binding result was “no binding (tested: ILT3-His injected up to 20 nM)”.
Same read-out and setting: to B4 belongs “no binding (tested: ILT3-His injected up to 20 nM)”.
With B5, the Kd was 25 nM.
Take B6: the binding result is “no binding (tested: ILT3-His injected up to 20 nM)”.
On the same count and under the same terms, to B7 belongs “no binding (tested: ILT3-His injected up to 20 nM)”.
B8: the Kd stood at 24 nM.
Same read-out and setting: as for B9, the figure is 115 nM.
Take B10: the binding result is given as “no binding (tested: ILT3-His injected up to 20 nM)”.
Regarding B11, the Kd was 26 nM.
Regarding B12, the binding result was “no binding (tested: ILT3-His injected up to 20 nM)”.
The same measure, in the same setting: to B13 belongs “no binding (tested: ILT3-His injected up to 20 nM)”; to B14, “no binding (tested: ILT3-His injected up to 20 nM)”.
As to B15, the Kd turned out to be 26 nM.
As for B16, the binding result is reported as “no binding (tested: ILT3-His injected up to 20 nM)”.
On to B17, for which the binding result was “no binding (tested: ILT3-His injected up to 20 nM)”.
Turning to B18, the dissociation constant Kd was found to be 34 nM.
Consider B19, for which the binding result is “no binding (tested: ILT3-His injected up to 20 nM)”.
In the case of B20, the binding result is on record as “no binding (tested: ILT3-His injected up to 20 nM)”.
On to B21, for which the binding result was “no binding (tested: ILT3-His injected up to 20 nM)”.
Take B22: the Kd worked out at 25 nM.
